# T1: rPDGFRB-ECD (Rattus norvegicus, UniProt Q05030)
# T1 sequence (Q05030 32-531 limits assumed): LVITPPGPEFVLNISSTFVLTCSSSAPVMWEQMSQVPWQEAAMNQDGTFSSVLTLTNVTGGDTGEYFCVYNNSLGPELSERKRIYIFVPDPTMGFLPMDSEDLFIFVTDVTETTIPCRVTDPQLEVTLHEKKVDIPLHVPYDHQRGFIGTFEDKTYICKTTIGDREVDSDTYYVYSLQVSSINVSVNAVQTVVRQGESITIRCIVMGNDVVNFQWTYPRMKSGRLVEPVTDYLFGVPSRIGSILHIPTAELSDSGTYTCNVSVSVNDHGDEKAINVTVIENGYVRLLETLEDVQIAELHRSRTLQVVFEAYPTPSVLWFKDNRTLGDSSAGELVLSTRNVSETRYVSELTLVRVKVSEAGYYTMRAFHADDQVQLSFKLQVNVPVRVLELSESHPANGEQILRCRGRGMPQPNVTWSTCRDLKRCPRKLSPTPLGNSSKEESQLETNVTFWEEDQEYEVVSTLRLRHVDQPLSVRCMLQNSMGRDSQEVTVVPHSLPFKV
# T2: murine PDGFRB ectodomain (mPDGFRB-ECD) (Mus musculus, UniProt P05622)
# T2 construct: varied across murine PDGFRB ectodomain (mPDGFRB-ECD), rPDGFRB-ECD and hPDGFRB-ECD
# T2 sequence (P05622 32-531 limits assumed): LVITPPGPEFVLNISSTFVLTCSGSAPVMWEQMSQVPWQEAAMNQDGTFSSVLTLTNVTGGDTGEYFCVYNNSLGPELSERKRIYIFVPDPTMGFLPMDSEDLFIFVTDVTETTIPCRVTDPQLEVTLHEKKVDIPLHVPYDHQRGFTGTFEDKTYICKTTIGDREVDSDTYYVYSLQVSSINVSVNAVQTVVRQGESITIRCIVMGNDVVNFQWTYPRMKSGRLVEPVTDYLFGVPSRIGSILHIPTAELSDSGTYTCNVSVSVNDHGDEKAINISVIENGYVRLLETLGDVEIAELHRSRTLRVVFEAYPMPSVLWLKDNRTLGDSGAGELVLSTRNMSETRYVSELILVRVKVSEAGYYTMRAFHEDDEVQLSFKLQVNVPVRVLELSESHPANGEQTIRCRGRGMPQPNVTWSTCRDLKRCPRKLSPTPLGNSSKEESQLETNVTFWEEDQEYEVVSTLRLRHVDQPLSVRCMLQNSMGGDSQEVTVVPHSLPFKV
# Key:
# [1] = system: NIH 3T3 2.2 cells that were transiently transfected with hIGF2R; experiment: Internalization by fluorescence microscopy after acid wash, hIGF2R-transfected NIH 3T3 2.2 cells; type: cell-based, human; settings: 25 nM Alexa fluor 647 conjugate
# Method: (§1) First, Alexa fluor 647-conjugates of the VHH 13F11 and the biparatopic VHH construct […] were added to A549 cells that endogenously express hIGF2R (FIG. 16A), NIH 3T3 2.2 cells that were transiently transfected with hIGF2R (FIG. 16B), or mock transfected NIH 3T3 2.2 cells (as a negative control). For this, the cells were incubated with 25 nM of the VHH or the VHH construct. Before fluorescent microscopy readout, to ensure that only signal of internalized VHH or mouse anti-IGF2R was present, an acid wash (0.2M glycine-HCl, 150 mM NaCl, pH 2.3) was used to remove VHH or mouse anti-IGF2R bound to the target receptors on the cell surface. The efficiency of the acid wash procedure was verified by incubating the hIGF2R transfected NIH 3T3 2.2 cells with 13F11-13E8-A647 on ice and subsequently treating these cells with an acid wash while remaining on ice to prevent internalization (FIG. 16D). […] Summarizing, biparatopic 13F11-13E8 clearly internalizes in cells expressing hIGF2R on the cell surface.
# [2] = system: SCC cells expressing mIGF2R; experiment: Kinetic internalization assay on SCC cells expressing mIGF2R; type: cell-based, murine; settings: IRDye800 conjugates, FIG. 17C left panel
# Method: (§2) The rate of internalization (endocytic rate constant, ke) of biparatopic constructs 13F11-13E8 and 13E8-13F11 was determined with a kinetic internalization assay on SCC-hIGF2R and SCC-rIGF2R cells. Briefly, 10 nM of IRD800CW conjugated 13F11-13E8 or 13E8-13F11 (conjugation method as described in example 10.2) was added to hIGF2R expressing SCC cells or rIGF2R expressing SCC cells and incubated at 37° C. for different time points up to 12 minutes. Internalization was then purposely halted by putting the cells on ice. Subsequently, cells were washed with cold PBS and the non-internalized VHH construct (bound fraction) was separated from the internalized construct (internalized fraction) using an acid-wash, as described above, after which the fluorescence of both fractions were measured. Both constructs internalize with similar endocytic rate constants in SCC-hIGF2R cells (ke around 1.5 min-1) and in SCC-rIGF2R cells (ke around 0.7 min-1) (FIGS. 17A and B, respectively).
# (§3) Internalization of 13F11-13E8 and the corresponding monomeric VHHs 13F11 and 13E8 was assessed in a similar assay (FIG. 17A-C).
# [3] = system: SCC-hIGF2R cells; experiment: Kinetic internalization assay on SCC-hIGF2R cells; type: cell-based, human
# Method: as §2, §3
# [4] = In vivo pharmacokinetics in rats, serum ELISA on hIGF2R-ECD; design: species or system Sprague-Dawley rats; settings: rats, i.v., approximately 3 mg/kg; ELISA LOD approximately 20 nM
# Method: (§4) The in vivo pharmacokinetic properties of 13F11-13E8-ABD (F11E8-ABD; with ABD) and 13F11-13E8 (F11E8; without ABD) were compared in healthy Sprague-Dawley rats. In brief, rats were dosed intravenously with approximately 3 mg/kg body weight and blood samples were taken at different time points and the concentration of the VHH constructs were determined using an ELISA on immobilized hIGF2R-ECD. […] To further confirm the functionality of the ABD, biodistribution of F11E8-ABD and F11E8 were assessed by means of Positron Emission Tomography (PET). In brief, the constructs were radio-labelled with the positron emitter ^89Zr-desferral according to Verel et al (J Nucl Med. 2003; 44:1271-1281), and administered intravenously to rats after which biodistribution was assessed on subsequent time points by whole-body PET.
# [5] = system: mock transfected NIH 3T3 2.2 cells; experiment: Internalization by fluorescence microscopy after acid wash, mock transfected cells; type: cell-based; settings: 25 nM Alexa fluor 647 conjugate, negative control cells
# Method: as §1
# [6] = system: A549 cells that endogenously express hIGF2R; experiment: Internalization by fluorescence microscopy after acid wash, A549 cells; type: cell-based, human; settings: 25 nM Alexa fluor 647 conjugate
# Method: as §1
# [7] = system: LX2 cells (an activated hepatic stellate cell line); experiment: Live imaging of internalization with pHrodo-red conjugates in LX2 cells; type: cell-based, human; settings: 50 nM pHrodo-red conjugate
# From the text: Internalization of monovalent 13F11 and biparatopics 13F11-13E8 and 13E8-13F11 was finally assessed in LX2 cells (an activated hepatic stellate cell line). For live imaging of internalization, the pH dependent Phrodo probe was used (ThermoFisher Scientific). This pH dependent probe becomes more fluorescent at acidic pH. Endosomes and lysosomes have a pH maintained at 6.5 and 4.5, respectively, compared to cytoplasmic pH of 7.0, and thus internalization of a VHH-pHrodo construct can be visualized when it internalizes via the endosomal pathway. LX-2 cells were incubated at 37° C. for 2 hours with 50 nM of pHrodo-red conjugated 13F11, 13F11-13E8 and 13E8-13F11 (conjugation method as described in example 10.2). Images were taken at 5 min. intervals using a wide-field PEXScope microscope (Nikon) with a mCherry filter and 40× oil objective.
# [8] = system: SCC-rIGF2R cells; experiment: Kinetic internalization assay on SCC-rIGF2R cells; type: cell-based, rat
# Method: as §2, §3
# [9] = Biodistribution by whole-body PET of 89Zr-labelled constructs; type: in vivo; settings: 89Zr-desferral labelled, i.v., rats
# Method: as §4
# [10] = system: SCC-hPDGFRB cells; experiment: Kinetic internalization assay on SCC-hPDGFRB cells; type: cell-based, human
# Method: as §2
# To determine the rate of internalization of the VHH construct SP02P-SP26P, kinetic internalization assays on hPDGFRB expressing SCC cells and LX-2 cells were performed using a similar method as described for the IGF2R constructs in example 11.1. […]
# [11] = target: hPDGFRB-ECD (Homo sapiens, UniProt P09619); experiment: Binding assay on hPDGFRB-ECD; settings: IRDye800-conjugated, FIG. 15D
# Method: The 15 unique hIGF2R-binding VHH (Example 2.1, FIG. 2) were produced and purified as described in examples 3 and 4. The apparent affinities were determined through binding assay on immobilized hIGF2R-ECD. Briefly, three-fold serial dilution series, starting from 1 μM, of each VHH were plated onto hIGF2R-ECD coated plates. VHH were allowed to bind for two hours after which plates were washed. Then, bound VHH was detected using a VHH-specific IgG antibody, followed by an IRD800CW-conjugated IgG-specific antibody. Plates were read out by fluorimetry.
# (§5) The 18 unique hPDGFRB binders from libraries 1 and 2, and the 11 unique rPDGFRB binders from libraries 3 and 4 (Example 2.2, FIGS. 5 and 6) were produced and purified as described in examples 3 and 4. Then, the apparent affinities were determined with binding assays on hPDGFRB-ECD and rPDGFRB-ECD, respectively, the setup described in example 5.1. Results are summarized in FIGS. 5 and 6 for the hPDGFRB and rPDGFRB VHHs, respectively.
# Based on their high affinity and binding to non-overlapping hPDGRB epitopes, various biparatopic constructs were prepared based on VHHs SP02P, SP12P SP14P, SP26P and SP28P. The constructs were produced as described in example 7.1. and subjected to binding assay.
# As Shown in FIG. 15C), the binding affinity of this construct for both hPDGFRB and rPDGFRB are below 5 nM. […]
# [12] = system: LX-2 cells; experiment: Kinetic internalization assay on LX-2 cells; type: cell-based, human; settings: FIG. 19 right panel
# Method: as §2
# To determine the rate of internalization of the VHH construct SP02P-SP26P, kinetic internalization assays on hPDGFRB expressing SCC cells and LX-2 cells were performed using a similar method as described for the IGF2R constructs in example 11.1.
# [13] = target: T1, rPDGFRB-ECD; experiment: Binding assay on rPDGFRB-ECD; settings: IRDye800-conjugated, FIG. 15D
# Method: as §5
# As Shown in FIG. 15C), the binding affinity of this construct for both hPDGFRB and rPDGFRB are below 5 nM. […] These observations make SP02P (or similar VHH) and SP26P (or similar VHH) particularly promising for use in the present invention.
# [14] = system: SCC-rPGDFRB cells; experiment: Kinetic internalization assay on SCC-rPGDFRB cells; type: cell-based; settings: IRDye800 conjugates, cells expressing rat PDGFRB
# Method: as §2
# To confirm improved internalization of biparatopic VHH constructs compared to the monomeric individual VHH components, kinetic internalization assays were performed using SCC-rPGDFRB and on SCC-hPDGFRB cells, using a similar method as described for the IGF2R constructs in example 11.1. […]
# [15] = target: T2, murine PDGFRB ectodomain (mPDGFRB-ECD); experiment: Binding assay on murine PDGFRB ectodomain; settings: IRDye800-conjugated, FIG. 15D
# [16] = 10 nM IRD800CW conjugate, 37° C., up to 12 minutes
# hPDGFRB-ECD, sequence (P09619 33-532 limits assumed): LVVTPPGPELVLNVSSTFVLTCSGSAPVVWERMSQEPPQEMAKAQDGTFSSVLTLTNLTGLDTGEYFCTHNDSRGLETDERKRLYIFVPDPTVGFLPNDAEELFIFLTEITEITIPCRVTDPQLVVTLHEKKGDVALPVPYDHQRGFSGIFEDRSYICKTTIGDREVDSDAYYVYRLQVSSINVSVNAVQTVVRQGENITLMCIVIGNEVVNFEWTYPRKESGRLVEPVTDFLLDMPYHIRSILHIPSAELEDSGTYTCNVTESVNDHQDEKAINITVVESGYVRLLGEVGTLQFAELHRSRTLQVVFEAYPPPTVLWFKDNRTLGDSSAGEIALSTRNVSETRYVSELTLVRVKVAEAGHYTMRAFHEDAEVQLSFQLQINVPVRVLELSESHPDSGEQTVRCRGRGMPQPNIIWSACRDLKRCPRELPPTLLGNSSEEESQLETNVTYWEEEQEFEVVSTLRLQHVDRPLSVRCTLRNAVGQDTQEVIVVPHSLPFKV
affinity for hPDGFRB-ECD [11],affinity for rPDGFRB-ECD [13],affinity for mPDGFRB-ECD [15],Molecule,internalization [1],internalization compared to the monomeric VHHs [2],"endocytic rate constant, ke [3, 16]","internalization compared to the monomeric VHHs ([3]; IRDye800 conjugates, FIG. 17C right panel)",clearance from circulation / detectability in serum [4],internalization [5],internalization [6],intracellular localisation of internalized construct [7],"increase in intracellular fluorescence (internalization) ([7]; 37° C., compared to monovalent 13F11 / between biparatopics)","endocytic rate constant, ke [8, 16]","internalization compared to the monomeric VHHs ([8]; IRDye800 conjugates, FIG. 17C middle panel)",biodistribution (PET) [9],internalization ([10]; FIG. 19 left panel),"internalization rate compared to monomeric VHH SP02 and SP26 ([10]; IRDye800 conjugates, cells expressing human PDGFRB)",internalization [12],internalization rate compared to monomeric VHH SP02 and SP26 [14]
,,,"13F11-13E8: biparatopic IGF2R VHH construct, 13F11 and 13E8 fused with (Gly-Gly-Gly-Gly-Ser)3 linker, C-terminal cysteine (protein, left off: small tags and cut ends, biparatopic IGF2R VHH construct, 13F11 and 13E8 fused with (Gly-Gly-Gly-Gly-Ser)3 linker, C-terminal cysteine) EVQLVESGGRLVQPGDSLRLSCAASGRTFSDNAMGWFRQAPGKERRFVAGISWAGGSTYYSDSVKGRFTISRDNAKNTVYLQMNSLKPEDTAVYYCAAGLRAWVQRMPKDYNYWGQGTQVTVSSGGGGSGGGGSGGGGSEVQLVESGGGLVQAGGSLRLSCAASRSISPMGWYRQAPGKQRELVAIMPSSGPPIYADSVQGRFTISRDNAKNTVYLQMNSLKPEDTAVYYCNVGGGYWGQGTQVTVSS",superior internalization,superior internalization,around 1.5 min-1,superior internalization,could not be detected anymore within two hours after injection,no internalization was observed,clearly internalized,accumulate into perinuclear compartments (endosomes/lysosomes),higher rate of internalization,around 0.7 min-1,superior internalization,swiftly accumulated in the kidneys,,,,
high affinity,high affinity,high affinity,"SP02P-SP26P: biparatopic PDGFRB VHH construct combining SP02P and SP26P (protein, left off: small tags and cut ends) EVQLVESGGGLVQAGGSLRLSCAASESISSIEQMGWFRQAPGKQRALVAINTYGGRTVYTNSVEGRFTMSRDSAKNMVYLQMTSLEPEDTAVYYCYAQTTAWRGGVWGQGTQVTVSSGGGGSGGGGSGGGGSEVQLVESGGGLVQAGGSLRLSCAASGRSFSSSVMGWFRQTPGKEREFVAATRWTAASTHYADSVKGRFTISRDHAENAVFLQMNSLKPEDTAVYYCAAGNYLDTAQYRYNYWGQGTQVTVSS",,,,,,,,,,,,,observed,5-10 fold,observed,5-10 fold

# Reference: patent US20240325562A1, “INTERNALIZING BINDING MOLECULES” (LinXis B.V., priority 2020, published 2024)
